Results from patent US20120034229A1 (UNIVERSITE CLAUDE BERNARD LYON 1, published 2012).

How the values were obtained:
[1] = target: T1, mature form of alpha3 lacking the LG4/5 domain (human, UniProt Q16787-1 28-1348, limits assumed); assay: Western blot of purified LN5, reducing SDS-PAGE
T1 construct: domain: mature form of alpha3 lacking the LG4/5 domain; Alpha3 subunit of LN5 purified from keratinocyte culture medium, reducing SDS-PAGE; also called alpha3 chain of mature LN5
T1 sequence (looked up): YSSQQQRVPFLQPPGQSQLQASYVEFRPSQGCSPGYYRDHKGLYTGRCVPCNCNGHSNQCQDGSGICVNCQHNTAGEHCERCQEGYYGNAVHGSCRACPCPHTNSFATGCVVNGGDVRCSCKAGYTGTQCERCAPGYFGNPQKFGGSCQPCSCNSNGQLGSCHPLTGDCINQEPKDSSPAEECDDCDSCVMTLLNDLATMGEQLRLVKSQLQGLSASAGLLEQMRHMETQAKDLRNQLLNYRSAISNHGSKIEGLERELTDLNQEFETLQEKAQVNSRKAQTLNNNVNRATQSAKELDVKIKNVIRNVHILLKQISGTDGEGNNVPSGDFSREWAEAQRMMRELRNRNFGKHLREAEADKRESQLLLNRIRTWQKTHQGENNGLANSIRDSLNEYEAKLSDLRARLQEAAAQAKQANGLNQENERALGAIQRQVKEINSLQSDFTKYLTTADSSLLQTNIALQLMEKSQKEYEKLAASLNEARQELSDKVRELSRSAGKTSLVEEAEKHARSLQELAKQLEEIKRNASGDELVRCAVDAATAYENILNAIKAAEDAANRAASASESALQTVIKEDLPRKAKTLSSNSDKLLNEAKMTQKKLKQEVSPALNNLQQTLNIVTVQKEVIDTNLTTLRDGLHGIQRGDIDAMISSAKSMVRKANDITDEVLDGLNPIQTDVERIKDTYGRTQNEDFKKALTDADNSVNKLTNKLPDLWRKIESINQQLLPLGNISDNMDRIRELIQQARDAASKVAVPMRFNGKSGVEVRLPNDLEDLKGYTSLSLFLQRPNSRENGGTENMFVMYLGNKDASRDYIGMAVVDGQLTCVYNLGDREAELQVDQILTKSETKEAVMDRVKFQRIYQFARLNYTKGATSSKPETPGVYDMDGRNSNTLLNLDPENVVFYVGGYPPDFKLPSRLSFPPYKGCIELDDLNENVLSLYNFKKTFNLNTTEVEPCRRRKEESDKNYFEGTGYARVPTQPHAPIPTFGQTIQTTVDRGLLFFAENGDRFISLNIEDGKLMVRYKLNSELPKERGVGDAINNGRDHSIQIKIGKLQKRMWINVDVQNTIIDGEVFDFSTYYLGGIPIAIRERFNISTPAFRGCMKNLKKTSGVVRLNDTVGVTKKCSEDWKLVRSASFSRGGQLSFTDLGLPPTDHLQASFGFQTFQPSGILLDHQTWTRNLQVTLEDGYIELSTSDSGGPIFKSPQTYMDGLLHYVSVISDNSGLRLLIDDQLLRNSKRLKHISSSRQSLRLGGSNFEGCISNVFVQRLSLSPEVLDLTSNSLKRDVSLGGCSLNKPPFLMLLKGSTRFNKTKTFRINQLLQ

[2] = target: T2, recombinant LG4/5 fragment of chain alpha3 of human laminin-5 (human, UniProt Q16787 2981-3333, limits assumed); assay: Western blot of the purified recombinant LG4/5 fragment
T2 construct: Recombinantly expressed and purified on heparin as in Okamoto et al. 2003; also called alpha3LG4/5 fragment; LG4/5 domain
T2 sequence: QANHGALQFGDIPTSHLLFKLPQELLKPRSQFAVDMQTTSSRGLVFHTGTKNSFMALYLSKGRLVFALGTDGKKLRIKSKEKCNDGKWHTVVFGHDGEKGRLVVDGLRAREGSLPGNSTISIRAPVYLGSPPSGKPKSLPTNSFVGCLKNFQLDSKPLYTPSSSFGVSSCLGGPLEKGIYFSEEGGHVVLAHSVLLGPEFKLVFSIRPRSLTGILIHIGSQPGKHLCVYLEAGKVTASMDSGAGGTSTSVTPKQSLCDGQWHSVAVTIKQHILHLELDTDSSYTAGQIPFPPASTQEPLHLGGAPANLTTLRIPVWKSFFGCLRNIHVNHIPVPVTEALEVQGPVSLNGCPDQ

binding result [1]: no binding
binding result [2]: binds
B1: 1H12 monoclonal antibody produced by the hybridoma cell line named 1H12 (C.N.C.M. I-3890) (antibody, V domains shown)
VH: VKLQQSGPELVKPGASVKISCKTSGYTFTEYTIHWVKQSHGKTLEWIGGINPKNGDTSYNQKFKGKATLTVDKSSNTAYMEFRSLTSEDSAVYYCASPDLPPMDYWGQGTTVTVSS
VL: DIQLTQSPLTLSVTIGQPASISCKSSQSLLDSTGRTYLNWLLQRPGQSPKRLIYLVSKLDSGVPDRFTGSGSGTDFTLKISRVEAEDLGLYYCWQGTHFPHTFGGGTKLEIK
notes: Mouse IgG1 kappa from hybridoma (supernatant or ascites); Ends of the V domains come from PCR primers; also called 1H12 mAb; mAb 1H12
